For assay [1], the target named is T1, human CCR8 (human, UniProt P51685 1-355).
T1 construct: the assay field says which; also called hCCR8; huCCR8
As to the kind of experiment: flow cytometry, CHO-huCCR8.Gna15 cells, relative to rb.Ab4. As to the method:
Evaluation of CCR8 binding of the humanized variants with a hIgG1 Fc involved screening by flow cytometry, and comparing the relative EC₅₀ and MFI on human CCR8 CHO cells to the parental rabbit antibodies. Specifically, stable CHO-huCCR8.Gna15 cells were stained with various concentrations (starting from 10 ug/ml or 66.66 nM, 1:4 serial dilution for total 8 concentration points) of Ab4 and Ab5 variants at 4° C. for 30 minutes, then washed twice with FACS buffer (PBS with 0.5% BSA and 0.2 mM EDTA) and followed by staining with AF647-anti-hIgG at 4° C. for 15 min. Cells were washed twice with FACS buffer, and re-suspended in FACS buffer with propidium iodide (0.5 ug/ml) and analyzed with iQue3 (Sartorius).
(In general: Flow cytometry measures light scatter and fluorescence of single cells or particles in a stream.)

Assay [2] addresses T1, human CCR8. As to the kind of experiment: cell-based or functional assay.
Assay [3] addresses T2, human CCR8.CCR5 chimera ECL1 (human, UniProt P51681 86-99, limits assumed).
T2 construct: domain: ECL1; on transfected 293 cells; also called ECL1 chimera
Description: flow cytometry, 293 cells transfected with the CCR8.CCR5 chimera ECL1 with C-terminal FLAG. As to the method: (§1) To epitope map fucosylated hu.Ab4.H12L3, the binding to chimeric forms of human CCR8 was analyzed by flow cytometry.

The target of assay [4] is T3, human CCR8.CCR5 chimera ECL2 (human, UniProt P51681 167-189).
T3 construct: domain: ECL2; Flanking CCR8 ranges derived from the stated replaced range 172-193; on transfected 293 cells; also called ECL2 chimera
As to the kind of experiment: flow cytometry, 293 cells transfected with the CCR8.CCR5 chimera ECL2 with C-terminal FLAG. As to the method:
as §1

In the next assay the target is T4, V9A.
T4 construct: single alanine mutant of hCCR8; also called hCCR8 V9A
T4 receptor chain: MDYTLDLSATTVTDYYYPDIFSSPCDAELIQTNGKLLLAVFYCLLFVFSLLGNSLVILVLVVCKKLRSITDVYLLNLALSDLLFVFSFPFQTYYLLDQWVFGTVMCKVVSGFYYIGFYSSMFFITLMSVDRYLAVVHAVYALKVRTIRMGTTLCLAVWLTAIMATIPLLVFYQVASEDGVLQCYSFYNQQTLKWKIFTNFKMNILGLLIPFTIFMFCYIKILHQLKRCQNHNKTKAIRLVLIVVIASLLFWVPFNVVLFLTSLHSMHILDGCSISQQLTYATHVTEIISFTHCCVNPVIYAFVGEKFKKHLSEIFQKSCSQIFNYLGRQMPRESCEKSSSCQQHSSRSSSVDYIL
As to the kind of experiment: flow cytometry, HEK293 transfected with hCCR8 V9A with C-terminal FLAG; sheet prints [huCCR8]=0.02 ug/ml.

The target in a further assay is T5, Y16A.
T5 construct: single alanine mutant of hCCR8; also called hCCR8 Y16A
T5 receptor chain: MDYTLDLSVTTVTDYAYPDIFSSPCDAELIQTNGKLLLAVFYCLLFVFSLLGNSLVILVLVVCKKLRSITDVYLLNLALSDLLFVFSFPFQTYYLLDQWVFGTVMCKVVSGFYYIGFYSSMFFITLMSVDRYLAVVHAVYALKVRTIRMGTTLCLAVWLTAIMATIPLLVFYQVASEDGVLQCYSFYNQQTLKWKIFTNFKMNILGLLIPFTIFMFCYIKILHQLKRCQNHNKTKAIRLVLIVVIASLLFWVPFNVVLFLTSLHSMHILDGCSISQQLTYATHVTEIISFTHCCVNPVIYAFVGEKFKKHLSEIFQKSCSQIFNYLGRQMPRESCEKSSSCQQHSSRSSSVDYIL
Description: flow cytometry, HEK293 transfected with hCCR8 Y16A with C-terminal FLAG; sheet prints [huCCR8]=0.02 ug/ml.

The next assay concerns the target T6, T11A.
T6 construct: single alanine mutant of hCCR8; also called hCCR8 T11A
T6 receptor chain: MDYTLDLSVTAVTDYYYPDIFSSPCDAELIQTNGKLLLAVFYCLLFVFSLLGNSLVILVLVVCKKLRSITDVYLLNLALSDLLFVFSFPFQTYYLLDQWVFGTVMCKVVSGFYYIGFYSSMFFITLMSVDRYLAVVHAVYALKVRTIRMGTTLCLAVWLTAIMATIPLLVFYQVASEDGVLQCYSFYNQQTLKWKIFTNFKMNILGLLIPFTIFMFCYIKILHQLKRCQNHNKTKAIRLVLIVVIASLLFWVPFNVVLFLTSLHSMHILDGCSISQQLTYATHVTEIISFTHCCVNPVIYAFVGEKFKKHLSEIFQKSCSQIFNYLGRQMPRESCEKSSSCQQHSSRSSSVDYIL
As to the kind of experiment: flow cytometry, HEK293 transfected with hCCR8 T11A with C-terminal FLAG; sheet prints [huCCR8]=0.02 ug/ml. Here is the method: (§2) FIGS. 16A-16B depict the epitope maps for hu.Ab5.H13L1 (FIG. 16A) and hu.Ab4.H12L3 (FIG. 16B) mAbs.
(§3) To epitope map fucosylated hu.Ab5.H13L1, the binding to alanine point mutations in human CCR8 was analyzed by flow cytometry.

The target of another assay is T7, hCCR8 L5A (human, UniProt P51685 1-355).
T7 construct: alanine point mutant on transfected HEK 293 cells
As to the kind of experiment: flow cytometry on transfected HEK 293 cells. Here is the method:
as §3
Constructs encoding for individual alanine point mutations at positions 2-24 in hCCR8 with a C-terminal FLAG tag were generated. HEK 293 cells were transfected with constructs encoding for mutant hCCR8 or with a mock construct using transIT X2 (reagent:DNA=3:1) for 24 hrs, and surface stained with the huCCR8 antibody hu.Ab5.H13L1 (hIgG1), then fixed and permeabilized and followed by FITC-anti-Flag (Sigma F4049).

The next assay deals with T8, hCCR8 D2A (human, UniProt P51685 1-355).
T8 construct: alanine point mutant on transfected HEK 293 cells
Description: flow cytometry, HEK293 transfected with hCCR8 D2A with C-terminal FLAG.

The target in a further assay is T9, hCCR8 Y3A (human, UniProt P51685 1-355).
T9 construct: alanine point mutant on transfected HEK 293 cells
As to the kind of experiment: flow cytometry, HEK293 transfected with hCCR8 Y3A with C-terminal FLAG. As to the method: as §2, §3

B1: hu.Ab4.H1L1 (antibody, human IgG1, kappa)
heavy: not shown
light: DYQMTQSPSSLSASVGDRVTITCQASQSISSYLSWYQQKPGKRPKLLIYKASTLASGVPSRFSGSGSGTDFTLTISSLQPEDFATYYCQQGYTSSNIDNIFGGGTKVEIKRTVAAPSVFIFPPSDEQLKSGTASVVCLLNNFYPREAKVQWKVDNALQSGNSQESVTEQDSKDSTYSLSSTLTLSKADYEKHKVYACEVTHQGLSSPVTKSFNRGEC
notes: also called hu.Ab4.H1Ll
As for B1, in the assay with human CCR8 [1], the “Relative EC50” value stood at 0.88 ratio and the “Relative MFI” value is 0.95 ratio.

B2: hu.Ab4.H12L3 (antibody, human IgG1, kappa)
heavy: not shown
light: DYQMTQSPSSLSASVGDRVTITCQASQSISSYLSWYQQKPGKAPKLLIYKASTLASGVPSRFSGSGSGTDFTLTISSLQPEDFATYYCQQGYTSSNIDNIFGGGTKVEIKRTVAAPSVFIFPPSDEQLKSGTASVVCLLNNFYPREAKVQWKVDNALQSGNSQESVTEQDSKDSTYSLSSTLTLSKADYEKHKVYACEVTHQGLSSPVTKSFNRGEC
notes: fucosylated human IgG1; also called huCCR8-Ab4.H12L3.hIgG1; Ab4 variant
In the case of B2, in the assay with human CCR8 [2], the “ADCP EC50, macrophages HR/FF (FIG. 14A)” value worked out at 0.35 nM; the “ADCP EC50, macrophages RR/FF (FIG. 14B)” value stood at 0.81 nM; the “ADCP EC50, macrophages RR/VF (FIG. 14D)” value came out at 0.41 nM. The binding result in [3] was “no binding”. The binding result in [4] is “no binding”.

B3: hu.Ab5.H13L1 (antibody, human IgG1, kappa)
heavy: not shown
light: DIQVTQSPSSLSASVGDRVTITCQASENIANALAWYQQKPGKPPKFLIYGASNLASGVPSRFSGSGSGTDFTFTISSLQPEDIATYYCQQAYYGNSFVEGTFGGGTKVEIKRTVAAPSVFIFPPSDEQLKSGTASVVCLLNNFYPREAKVQWKVDNALQSGNSQESVTEQDSKDSTYSLSSTLTLSKADYEKHKVYACEVTHQGLSSPVTKSFNRGEC
notes: fucosylated human IgG1; also called Ab5 variant
Regarding B3, the binding result is reported as “binds” with V9A; “binds” with Y16A; “binds” in the assay with T11A; “no binding” with hCCR8 L5A; “no binding (tested: 0.02 ug/ml)” with hCCR8 D2A; “no binding (tested: 0.02 ug/ml)” in the assay with hCCR8 Y3A.

For the origin of these results see patent US20230049152A1 (Genentech, published 2023).
